Measurements from patent US10618965 (dated 2020).
Where a chain is given by its changes, count along the chain named. Where two headings read alike, the source gives them in different places.

Legend:
[1] = target: human FcRn (with beta2-microglobulin) (human); experiment: SPR, pH 7.0
[2] = target: human FcRn (with beta2-microglobulin) (human); experiment: SPR, pH 7.0; remark: listed apart in the source
[3] = target: human FcRn (with beta2-microglobulin) (human); experiment: SPR, pH 7.0; remark: listed apart in the source
[4] = target: human FcRn (with beta2-microglobulin) (human); experiment: SPR, pH 7.0; remark: listed apart in the source
[5] = target: human FcRn (with beta2-microglobulin) (human); experiment: SPR, pH 7.0; remark: listed apart in the source
[6] = target: human FcRn (with beta2-microglobulin) (human); experiment: SPR, pH 7.0; remark: listed apart in the source
human FcgRIIIa(V) [7] = target: human FcgRIIIa(V) (human); experiment: SPR
Sequence of human FcgRIIIa(V) (human) (chain, as listed by the source): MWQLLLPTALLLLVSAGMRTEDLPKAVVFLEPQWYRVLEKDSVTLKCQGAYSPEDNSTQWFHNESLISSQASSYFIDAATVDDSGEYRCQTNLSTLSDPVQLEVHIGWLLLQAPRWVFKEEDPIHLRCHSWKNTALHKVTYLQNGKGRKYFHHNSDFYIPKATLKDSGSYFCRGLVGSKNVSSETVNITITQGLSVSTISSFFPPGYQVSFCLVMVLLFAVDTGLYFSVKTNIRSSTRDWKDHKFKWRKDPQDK

human FcgRIa [8] = target: human FcgRIa (human); experiment: SPR
Sequence of human FcgRIa (human) (chain, as listed by the source): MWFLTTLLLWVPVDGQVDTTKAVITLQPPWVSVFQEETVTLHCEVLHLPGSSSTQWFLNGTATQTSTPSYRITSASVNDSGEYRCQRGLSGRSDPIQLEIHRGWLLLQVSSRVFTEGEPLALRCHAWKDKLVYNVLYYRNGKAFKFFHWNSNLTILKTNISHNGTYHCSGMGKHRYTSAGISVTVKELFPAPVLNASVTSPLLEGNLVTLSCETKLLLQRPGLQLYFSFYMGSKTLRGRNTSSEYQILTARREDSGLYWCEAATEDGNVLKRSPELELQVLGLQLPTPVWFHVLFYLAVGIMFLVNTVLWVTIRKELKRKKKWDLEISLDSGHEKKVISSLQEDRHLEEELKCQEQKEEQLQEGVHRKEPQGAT

human FcgRIIIa(V) [9] = target: human FcgRIIIa(V) (human); experiment: SPR; remark: listed apart in the source
human FcgRIIb [10] = target: T1, human FcgRIIb (human); experiment: SPR
T1 chain: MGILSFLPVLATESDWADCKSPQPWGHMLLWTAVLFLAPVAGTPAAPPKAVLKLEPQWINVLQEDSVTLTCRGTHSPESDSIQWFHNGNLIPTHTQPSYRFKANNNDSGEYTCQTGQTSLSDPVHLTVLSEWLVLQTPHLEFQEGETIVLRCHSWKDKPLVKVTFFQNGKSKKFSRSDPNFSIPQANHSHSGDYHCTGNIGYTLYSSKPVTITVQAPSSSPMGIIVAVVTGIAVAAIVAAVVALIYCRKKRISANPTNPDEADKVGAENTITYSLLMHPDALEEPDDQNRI

human FcgRIIb [11] = target: T1, human FcgRIIb; experiment: SPR
human FcgRIIa(H) [12] = target: T2, human FcgRIIa(H) (human); experiment: SPR
T2 chain: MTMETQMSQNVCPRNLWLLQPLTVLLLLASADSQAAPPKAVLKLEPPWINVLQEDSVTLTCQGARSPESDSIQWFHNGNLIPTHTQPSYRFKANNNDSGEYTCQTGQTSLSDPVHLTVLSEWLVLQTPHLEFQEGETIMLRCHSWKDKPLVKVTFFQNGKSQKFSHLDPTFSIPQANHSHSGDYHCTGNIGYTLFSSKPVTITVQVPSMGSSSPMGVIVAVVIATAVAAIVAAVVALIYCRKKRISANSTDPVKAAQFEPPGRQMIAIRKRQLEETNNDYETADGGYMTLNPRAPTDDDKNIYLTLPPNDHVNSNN

human FcgRIIa(R) [13] = target: T3, human FcgRIIa(R) (human); experiment: SPR
T3 chain: T2 chain

human FcgRIIb [14] = target: T1, human FcgRIIb; experiment: SPR
human FcgRIa [15] = target: human FcgRIa (human); experiment: SPR; remark: listed apart in the source
human FcgRIIa(H) [16] = target: T2, human FcgRIIa(H); experiment: SPR
human FcgRIIa(R) [17] = target: T3, human FcgRIIa(R); experiment: SPR
human FcgRIIIa(V) [18] = target: human FcgRIIIa(V) (human); experiment: SPR; remark: listed apart in the source
human FcgRIIa(R) [19] = target: T3, human FcgRIIa(R); experiment: SPR
human FcgRIIb [20] = target: T1, human FcgRIIb; experiment: SPR
human FcgRIIb [21] = target: T1, human FcgRIIb; experiment: SPR
human FcgRIa [22] = target: human FcgRIa (human); experiment: SPR; remark: listed apart in the source
human FcgRIIa(H) [23] = target: T2, human FcgRIIa(H); experiment: SPR
human IL-6 receptor [24] = target: T4, human IL-6 receptor (human); experiment: SPR, 3 uM CaCl2, 37C
T4 chain: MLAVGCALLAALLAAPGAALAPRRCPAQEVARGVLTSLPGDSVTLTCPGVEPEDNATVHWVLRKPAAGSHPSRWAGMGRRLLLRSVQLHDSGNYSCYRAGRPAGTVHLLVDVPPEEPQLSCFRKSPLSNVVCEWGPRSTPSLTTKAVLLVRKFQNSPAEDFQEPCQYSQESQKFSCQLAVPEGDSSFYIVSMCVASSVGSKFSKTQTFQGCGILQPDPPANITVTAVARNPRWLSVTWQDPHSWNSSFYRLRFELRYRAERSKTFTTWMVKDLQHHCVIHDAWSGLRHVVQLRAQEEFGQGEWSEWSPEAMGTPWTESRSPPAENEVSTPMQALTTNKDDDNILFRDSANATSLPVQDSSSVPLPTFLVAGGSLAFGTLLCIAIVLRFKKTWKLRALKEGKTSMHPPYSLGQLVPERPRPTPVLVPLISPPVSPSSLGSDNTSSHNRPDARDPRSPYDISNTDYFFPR

human IL-6 receptor [25] = target: T4, human IL-6 receptor; experiment: SPR, 3 uM CaCl2, 37C
[26] = target: human FcRn (with beta2-microglobulin) (human); experiment: SPR, pH 7.0; remark: listed apart in the source

Sequence of human FcRn (with beta2-microglobulin) (human) (chain, as listed by the source, chain 1 of 2): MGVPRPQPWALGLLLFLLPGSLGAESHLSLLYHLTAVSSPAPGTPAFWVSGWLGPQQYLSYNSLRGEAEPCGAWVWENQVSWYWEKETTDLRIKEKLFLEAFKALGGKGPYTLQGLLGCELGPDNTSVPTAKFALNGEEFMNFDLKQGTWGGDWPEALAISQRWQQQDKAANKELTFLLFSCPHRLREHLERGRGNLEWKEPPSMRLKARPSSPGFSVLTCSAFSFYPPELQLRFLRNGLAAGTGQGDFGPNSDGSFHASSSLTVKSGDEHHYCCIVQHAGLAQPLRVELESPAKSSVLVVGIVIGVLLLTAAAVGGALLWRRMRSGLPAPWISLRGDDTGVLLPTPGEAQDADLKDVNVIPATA
Sequence of human FcRn (with beta2-microglobulin) (human) (chain, as listed by the source, chain 2 of 2): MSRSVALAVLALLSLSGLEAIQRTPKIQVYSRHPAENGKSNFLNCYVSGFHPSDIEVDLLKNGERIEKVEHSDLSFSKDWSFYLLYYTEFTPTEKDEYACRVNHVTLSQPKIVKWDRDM

B1: IgG1-F698 (antibody)
chain 1: QVQLQESGPGLVKPSETLSLTCAVSGHSISHDHAWSWVRQPPGEGLEWIGFISYSGITNYNPSLQGRVTISRDNSKNTLYLQMNSLRAEDTAVYYCARSLARTTAMDYWGEGTLVTVSSASTKGPSVFPLAPSSKSTSGGTAALGCLVKDYFPEPVTVSWNSGALTSGVHTFPAVLQSSGLYSLSSVVTVPSSSLGTQTYICNVNHKPSNTKVDKKVEPKSCDKTHTCPPCPAPELLGGPSVFLFPPKPKDTLYISRTPEVTCVVVDVSHEDPEVKFNWYVDGVEVHEAKTKPREEQYNSTYRVVSVLQVLHADWLNGKEYKCKVSNKALPAPIEKTISKAKGQPREPQVYTLPPSRDELTKNQVSLTCLVKGFYPSDIAVEWESNGQPENNYKTTPPVLDSDGSFFLYSKLTVDKSRWQQGNVFSCSVMHEALHYHYTQKSLSLSP
chain 2: not shown
**Q.** How did the Kd [1] turn out when B1 was run?
**A.** 22 nM

**Q.** And the Kd [2]?
**A.** 22 nM

B2: F1326 (antibody)
chain 1: B1 chain 1 with L236A, L237A, T252V, E288N, V310P, Y438V
chain 2: not shown
**Q.** What does the source list for B2?
**A.** Kd [3]: 11 nM; Kd [4]: 11 nM

B3: IgG1-F763 (antibody)
chain 1: B1 chain 1 with L237R, S241K
chain 2: not shown
**Q.** Which Kd [1] does the source give for B3 here?
**A.** 35 nM

B4: IgG1-F699 (antibody)
chain 1: B1 chain 1 with S241K
chain 2: not shown
**Q.** With B4 as the binder, how does the Kd [2] read?
**A.** 23 nM

B5: F947 (antibody)
chain 1: B1 chain 1 with T252V, E288N, V310P, Y438V
chain 2: not shown
**Q.** B5 was tested. Which Kd [3] did it give?
**A.** 11 nM

**Q.** And the Kd [4]?
**A.** 11 nM

**Q.** And the Kd [5]?
**A.** 11 nM

B6: IgG4-F890 (antibody)
chain 1: QVQLQESGPGLVKPSETLSLTCAVSGHSISHDHAWSWVRQPPGEGLEWIGFISYSGITNYNPSLQGRVTISRDNSKNTLYLQMNSLRAEDTAVYYCARSLARTTAMDYWGEGTLVTVSSASTKGPSVFPLAPCSRSTSESTAALGCLVKDYFPEPVTVSWNSGALTSGVHTFPAVLQSSGLYSLSSVVTVPSSSLGTKTYTCNVDHKPSNTKVDKRVESKYGPPCPPCPAPEFLGGPSVFLFPPKPKDTLYISRTPEVTCVVVDVSQEDPEVQFNWYVDGVEVHNAKTKPREEQFNSTYRVVSVLTVLHQDWLNGKEYKCKVSNKGLPSSIEKTISKAKGQPREPQVYTLPPSQEEMTKNQVSLTCLVKGFYPSDIAVEWESNGQPENNYKTTPPVLDSDGSFFLYSRLTVDKSRWQEGNVFSCSVMHEALHYHVTQKSLSLSL
chain 2: not shown
**Q.** With B6 as the binder, how does the Kd [6] read?
**A.** 140 nM

B7: IL6R-G1d/IL6R-L (IgG1) (antibody)
chain 1: not shown
chain 2: DIQMTQSPSSLSASVGDRVTITCRASQDISSYLNWYQQKPGKAPKLLIYYTSRLHSGVPSRFSGSGSGTDFTFTISSLQPEDIATYYCQQGNTLPYTFGQGTKVEIK
**Q.** How did the Kd (human FcgRIIIa(V) [7]) turn out when B7 was run?
**A.** 350 nM

**Q.** What about the Kd (human FcgRIa [8]) of the same binder?
**A.** 0.32 nM

**Q.** What about the Kd (human FcgRIIIa(V) [9]) of the same binder?
**A.** 350 nM

**Q.** What about the Kd (human FcgRIIb [10]) of the same binder?
**A.** 2600 nM

**Q.** And the Kd (human FcgRIIb [11])?
**A.** 5300 nM

**Q.** And the Kd (human FcgRIIa(H) [12])?
**A.** 670 nM

**Q.** And the Kd (human FcgRIIa(R) [13])?
**A.** 1000 nM

**Q.** And the Kd (human FcgRIIb [14])?
**A.** 2600 nM

**Q.** And the Kd (human FcgRIa [15])?
**A.** 0.32 nM

**Q.** What about the Kd (human FcgRIIa(H) [16]) of the same binder?
**A.** 670 nM

**Q.** And the Kd (human FcgRIIa(R) [17])?
**A.** 1000 nM

**Q.** And the Kd (human FcgRIIIa(V) [18])?
**A.** 350 nM

**Q.** And the Kd (human FcgRIIa(R) [19])?
**A.** 1000 nM

**Q.** What about the Kd (human FcgRIIb [20]) of the same binder?
**A.** 5300 nM

**Q.** And the Kd (human FcgRIIb [21])?
**A.** 2600 nM

**Q.** What about the Kd (human FcgRIa [22]) of the same binder?
**A.** 0.32 nM

**Q.** What about the Kd (human FcgRIIa(H) [23]) of the same binder?
**A.** 670 nM

B8: IL6R-B3/IL6R-L (antibody)
chain 1: not shown
chain 2: B7 chain 2
**Q.** What does the source list for B8?
**A.** Kd (human FcgRIa [8]): 0.42 nM; Kd (human FcgRIIIa(V) [9]): 330 nM; Kd (human FcgRIIb [10]): 3100 nM; Kd (human FcgRIIa(H) [12]): 770 nM; Kd (human FcgRIa [15]): 0.42 nM; Kd (human FcgRIIa(H) [16]): 770 nM; Kd (human FcgRIIa(R) [17]): 1100 nM; Kd (human FcgRIIIa(V) [18]): 330 nM; Kd (human FcgRIIa(R) [19]): 1100 nM; Kd (human FcgRIIb [21]): 3100 nM

B9: IL6R-F11/IL6R-L (antibody)
chain 1: not shown
chain 2: B7 chain 2
**Q.** What does the source list for B9?
**A.** Kd (human FcgRIIa(R) [13]): 5000 nM; Kd (human FcgRIIb [14]): 6800 nM; Kd (human FcgRIa [22]): 0.9 nM; Kd (human FcgRIIa(H) [23]): 5000 nM

B10: 6RL#9-IgG1 (antibody, V domains shown)
VH: QVQLVQSGAEVKKPGASVKVSCKASGYTFTSYYMHWVRQAPGQGLEWMGIINPSGGSTSYAQKFQGRVTMTRDTSTSTVYMELSSLRSEDTAVYYCARDDPGGGEYYFDYWGQGTLVTVSS
VL: QSVLTQPPSVSGAPGQRVTISCTGSRSNMGAGYDVHWYQLLPGAAPKLLISHNTHRPSGVPDRFSGSKSGASASLAITGLQAEDEADYYCQSHDSSLSAVVFGGGTKLTVLS
**Q.** How did the Kd (human IL-6 receptor [24]) turn out when B10 was run?
**A.** > 31000 nM

**Q.** And the Kd (human IL-6 receptor [25])?
**A.** ~31000 nM

B11: FH4-IgG1 (antibody, V domains shown)
VH: QVQLVQSGAEVKKPGSSVKVSCKASGGTFSSYAISWVRQAPGQGLEWMGGIIPIFGTANYAQKFQGRVTITADESTSTAYMELSSLRSEDTAVYYCARERDYYDSSGYYDAFDIWGQGTMVTVSS
VL: ETTVTQSPSFLSASVGDRVTITCITTTDIDDDMNWFQQEPGKAPKLLISEGNILRPGVPSRFSSSGYGTDFTLTISKLQPEDFATYYCLQSDNLPFTFGQGTKLEIKR
**Q.** Which results are given for B11?
**A.** Kd (human IL-6 receptor [24]): > 34000 nM; Kd (human IL-6 receptor [25]): ~34000 nM

B12: IgG2 (antibody)
chain 1: QVQLQESGPGLVKPSETLSLTCAVSGHSISHDHAWSWVRQPPGEGLEWIGFISYSGITNYNPSLQGRVTISRDNSKNTLYLQMNSLRAEDTAVYYCARSLARTTAMDYWGEGTLVTVSSASTKGPSVFPLAPCSRSTSESTAALGCLVKDYFPEPVTVSWNSGALTSGVHTFPAVLQSSGLYSLSSVVTVPSSNFGTQTYTCNVDHKPSNTKVDKTVERKCCVECPPCPAPPVAGPSVFLFPPKPKDTLMISRTPEVTCVVVDVSHEDPEVQFNWYVDGVEVHNAKTKPREEQFNSTFRVVSVLTVVHQDWLNGKEYKCKVSNKGLPAPIEKTISKTKGQPREPQVYTLPPSREEMTKNQVSLTCLVKGFYPSDIAVEWESNGQPENNYKTTPPMLDSDGSFFLYSKLTVDKSRWQQGNVFSCSVMHEALHNHYTQKSLSLSP
chain 2: not shown
**Q.** Does B12 bind [26]?
**A.** no binding

B13: IgG2-F939 (antibody)
chain 1: B12 chain 1 with A234R, S237K, M250Y, N432Y, Y434V
chain 2: not shown
**Q.** B13 was tested. Which Kd [6] did it give?
**A.** 140 nM
